{
  "source": "paper PMC12525431",
  "about": "(International Journal of Molecular Sciences, 2025)",
  "binders": {"B1": {"name": "peptide N7 (16aa peptide of Hsp70) (peptide)", "peptide": "SDNQPGVLIQVYEGEK", "notes": "Hsp70, human; Found by MALDI-TOF in a trypsin hydrolysate of recombinant human Hsp70, then synthesised; also called N7 peptide; Hsp70 N7 peptide; source: synthetic peptide (Fmoc, purified by HPLC)"}},
  "molecular_target": "sTREM-1 (UniProt Q9NP99-2 21-150, labelled with Alexa Fluor 488 (Protein Labeling Kit))",
  "sequence (Q9NP99 other isoform, or with tags, fused parts or gaps)": "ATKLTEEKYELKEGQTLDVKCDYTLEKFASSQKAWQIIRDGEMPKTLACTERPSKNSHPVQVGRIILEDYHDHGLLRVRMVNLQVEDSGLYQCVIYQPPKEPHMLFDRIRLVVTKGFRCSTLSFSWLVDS",
  "test": "MST; sTREM-1 labelled with Alexa Fluor 488; peptide in 16 concentrations by sequential dilution; 30 min in the dark at room temperature; Monolith NT.115, 8% IR laser power; at least three replicates",
  "details": "both partners purified",
  "data": [
    {"binder": "B1", "values": [
      {"measurement": "Kd", "value": 1.6, "unit": "nM"}
    ]}
  ]
}
